B1: 22109 (protein)
chain: MALPVTALLLPLALLLHAARPMLPAPKNLVVSRITEDSARLSWTAPDAAFDSFPIRYIETLIWGEAIWLDVPGSERSYDLTGLKPGTEYAVVITGVKGGRFSSPLVASFTTGTGGGGSGGGGSGGGGSEFDIQMTQSPSSLSASVGDRVTITCKASDHINNWLAWYQQKPGQAPKLLIYGATTLETGVPSRFSGSGSGTDYTLTISSLQPEDFATYYCQQSWNTPWTFGQGTKLEIKRLEDLKNVFPPEVAVFEPSEAEISHTQKATLVCLATGFYPDHVELSWWVNGKEVHSGVCTDPQPLKEQPALNDSRYCLSSRLRVSATFWQNPRNHFRCQVQFYGLSENDEWTQDRAKPVTQIVSAEAWGRADCGFTSESYQQGVLSATILYEILLGKATLYAVLVSALVLMAMVKRKDSRGRAKRSGSGATNFSLLKQAGDVEENPGPTSMDWIWRILFLVGAATGAHSFEQVQLQQPGAELVKPGASVKMSCKASGYAFSSYWINWMKQKPGQGLEWIGQIYPGDGDTNYNGKFKGRATLTADTSSSTAYMQLSSLTSEDSAVYFCARSITTVVGCAMDYWGQGTSVTVSSTRIQNPDPAVYQLRDSKSSDKSVCLFTDFDSQTNVSQSKDSDVYITDKCVLDMRSMDFKSNSAVAWSNKSDFACANAFNNSIIPEDTFFPSPESSCDVKLVEKSFETDTNLNFQNLSVIGFRILLLKVAGFNLLMTLRLWSSRAKRSGSGVKQTLNFDLLKLAGDVESNPGPSRGHMTEYKPTVRLATRDDVPRAVRTLAAAFADYPATRHTVDPDRHIERVTELQELFLTRVGLDIGKVWVADDGAAVAVWTTPESVEAGAVFAEIGPRMAELSGSRLAAQQQMEGLLAPHRPKEPAWFLATVGVSPDHQGKGLGSAVVLPGVEAAERAGVPAFLETSAPRNLPFYERLGFTVTADVEVPEGPRTWCMTRKPGA
B2: 22116 (protein)
chain: MALPVTALLLPLALLLHAARPQVQLVESGGGLVQPGGSLRLSCAASGFTFTNHAMSWVRQAPGKGLELVSSISGNGRTTYYADSVKGRFTISRDISKNTLDLQMNSLRAEDTAVYYCAKDGGETLVDSRGQGTLVTVSSLEIQNPDPAVYQLRDSKSSDKSVCLFTDFDSQTNVSQSKDSDVYITDKCVLDMRSMDFKSNSAVAWSNKSDFACANAFNNSIIPEDTFFPSSDVPCDVKLVEKSFETDTNLNFQNLSVIGFRILLLKVAGFNLLMTLRLWSSRAKRSGSGVKQTLNFDLLKLAGDVESNPGPTSTMALPVTALLLPLALLLHAARPQVQLVESGGGLVQPGGSLRLSCAASGFTFTNHAMSWVRQAPGKGLELVSSISGNGRTTYYADSVKGRFTISRDISKNTLDLQMNSLRAEDTAVYYCAKDGGETLVDSRGQGTLVTVSSLESGGGGSFEQVQLQQPGAELVKPGASVKMSCKASGYAFSSYWINWMKQKPGQGLEWIGQIYPGDGDTNYNGKFKGRATLTADTSSSTAYMQLSSLTSEDSAVYFCARSITTVVGCAMDYWGQGTSVTVSSTREDLKNVFPPEVAVFEPSKAEIAHTQKATLVCLATGFYPDHVELSWWVNGKEVHSGVCTDPQPLKEQPALNDSRYCLSSRLRVSATFWQNPRNHFRCQVQFYGLSENDEWTQDRAKPVTQIVSAEAWGRADCGITSASYHQGVLSATILYEILLGKATLYAVLVSALVLMAMVKRKDSRGRAKRSGSGATNFSLLKQAGDVEENPGPSRGHMTEYKPTVRLATRDDVPRAVRTLAAAFADYPATRHTVDPDRHIERVTELQELFLTRVGLDIGKVWVADDGAAVAVWTTPESVEAGAVFAEIGPRMAELSGSRLAAQQQMEGLLAPHRPKEPAWFLATVGVSPDHQGKGLGSAVVLPGVEAAERAGVPAFLETSAPRNLPFYERLGFTVTADVEVPEGPRTWCMTRKPGA
B3: 22130 (protein)
chain: MALPVTALLLPLALLLHAARPACEVQLLESGGGLIQPGGSLRLSCAASGFTFSSHAMTWVRQAPGKGLEWVSAISGSGDYTHYADSVKGRFTISRDNSKNTVYLQMNSLRAEDSAVYYCAKDEDGGSLLGHRGQGTLVTVSSGTGGGGSGGGGSGGGGSEFDIQMTQSPSSLSASVGDRVTITCKASDHINNWLAWYQQKPGQAPKLLIYGATTLETGVPSRFSGSGSGTDYTLTISSLQPEDFATYYCQQSWNTPWTFGQGTKLEIKRLEDLKNVFPPEVAVFEPSKAEIAHTQKATLVCLATGFYPDHVELSWWVNGKEVHSGVCTDPQPLKEQPALNDSRYCLSSRLRVSATFWQNPRNHFRCQVQFYGLSENDEWTQDRAKPVTQIVSAEAWGRADCGITSASYHQGVLSATILYEILLGKATLYAVLVSALVLMAMVKRKDSRGRAKRSGSGATNFSLLKQAGDVEENPGPTSATMDWIWRILFLVGAATGAHSGPQVQLQESGGGLAQAGGSLRLSCAASGRTFSMGWFRQAPGKEREFVAAITYSGGSPYYASSVRGRFTISRDNAKNTVYLQMNSLKPEDTAVYYCAANPTYGSDWNAENWGQGTQVTVSSGSGGGGSGGGGSGGGGSFEQVQLQQPGAELVKPGASVKMSCKASGYAFSSYWINWMKQKPGQGLEWIGQIYPGDGDTNYNGKFKGRATLTADTSSSTAYMQLSSLTSEDSAVYFCARSITTVVGCAMDYWGQGTSVTVSSTRIQNPDPAVYQLRDSKSSDKSVCLFTDFDSQTNVSQSKDSDVYITDKCVLDMRSMDFKSNSAVAWSNKSDFACANAFNNSIIPEDTFFPSSDVPCDVKLVEKSFETDTNLNFQNLSVIGFRILLLKVAGFNLLMTLRLWSSRAKRSGSGVKQTLNFDLLKLAGDVESNPGPSRGHMTEYKPTVRLATRDDVPRAVRTLAAAFADYPATRHTVDPDRHIERVTELQELFLTRVGLDIGKVWVADDGAAVAVWTTPESVEAGAVFAEIGPRMAELSGSRLAAQQQMEGLLAPHRPKEPAWFLATVGVSPDHQGKGLGSAVVLPGVEAAERAGVPAFLETSAPRNLPFYERLGFTVTADVEVPEGPRTWCMTRKPGA
B4: 22142 (protein)
chain: MALPVTALLLPLALLLHAARPQVQLVESGGGLVQPGGSLRLSCAASGFTFTNHAMSWVRQAPGKGLELVSSISGNGRTTYYADSVKGRFTISRDISKNTLDLQMNSLRAEDTAVYYCAKDGGETLVDSRGQGTLVTVSSLEGGGGSGGGGSIEGGGGSGGGGSKVQLLESGGGLVQPGGSLRLSCAASGFIFSSYAMSWVRQAPGKGQEWVSGVSGTGVNTYYADSVKGRFTISRDNSKNTLYLQMNSLRAEDTAVYYCASGKGWDSGSWYEDYRGQGTLVTVSSGTGGGGSGGGGSGGGGSEFDIQMTQSPSSLSASVGDRVTITCKASDHINNWLAWYQQKPGQAPKLLIYGATTLETGVPSRFSGSGSGTDYTLTISSLQPEDFATYYCQQSWNTPWTFGQGTKLEIKRLEIQNPDPAVYQLRDSKSSDKSVCLFTDFDSQTNVSQSKDSDVYITDKCVLDMRSMDFKSNSAVAWSNKSDFACANAFNNSIIPEDTFFPSSDVPCDVKLVEKSFETDTNLNFQNLSVIGFRILLLKVAGFNLLMTLRLWSSRAKRSGSGVKQTLNFDLLKLAGDVESNPGPTSATMDWIWRILFLVGAATGAHSGPQVQLQESGGGLAQAGGSLRLSCAASGRTFSMGWFRQAPGKEREFVAAITYSGGSPYYASSVRGRFTISRDNAKNTVYLQMNSLKPEDTAVYYCAANPTYGSDWNAENWGQGTQVTVSSGSGGGGSGGGGSGGGGSFEQVQLQQPGAELVKPGASVKMSCKASGYAFSSYWINWMKQKPGQGLEWIGQIYPGDGDTNYNGKFKGRATLTADTSSSTAYMQLSSLTSEDSAVYFCARSITTVVGCAMDYWGQGTSVTVSSTREDLKNVFPPEVAVFEPSKAEIAHTQKATLVCLATGFYPDHVELSWWVNGKEVHSGVCTDPQPLKEQPALNDSRYCLSSRLRVSATFWQNPRNHFRCQVQFYGLSENDEWTQDRAKPVTQIVSAEAWGRADCGITSASYHQGVLSATILYEILLGKATLYAVLVSALVLMAMVKRKDSRGRAKRSGSGATNFSLLKQAGDVEENPGPSRGHMTEYKPTVRLATRDDVPRAVRTLAAAFADYPATRHTVDPDRHIERVTELQELFLTRVGLDIGKVWVADDGAAVAVWTTPESVEAGAVFAEIGPRMAELSGSRLAAQQQMEGLLAPHRPKEPAWFLATVGVSPDHQGKGLGSAVVLPGVEAAERAGVPAFLETSAPRNLPFYERLGFTVTADVEVPEGPRTWCMTRKPGA

Test system: RAJI cells
Test: JNG assay, co-culture with RAJI cells
Assay type: cell-based
Details: JNG cells expressing construct, co-culture with Raji
How it was run: (§1)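 Read-out is NFAT-driven GFP measured by flow cytometry after ~4–18 h co-culture of SAR-expressing JNG cells with target cells (E:T about 1:2). SARs were introduced by lentiviral spinfection and selected with puromycin or blasticidin when possible; scores (+/- to 5+ ≈ 5–50% GFP+) are relative to parental JNG cells.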

Molecule | NFAT-GFP ASSAY: Raji
B1 | 2+ (refer to approximately 5%, 10%, 20%, 30%, 40% and 50% GFP positive cells)
B2 | 3+ (refer to approximately 5%, 10%, 20%, 30%, 40% and 50% GFP positive cells)
B3 | 4+ (refer to approximately 5%, 10%, 20%, 30%, 40% and 50% GFP positive cells)
B4 | + (refer to approximately 5%, 10%, 20%, 30%, 40% and 50% GFP positive cells)

Test system: RAJI-CD19-KO cells
Test: JNG assay, co-culture with RAJI-CD19-KO cells
Assay type: cell-based
Details: co-culture with Raji-CD19-KO
How it was run: as §1

Molecule | NFAT-GFP ASSAY: Raji-CD19-KO
B1 | +/- (refer to approximately 5%, 10%, 20%, 30%, 40% and 50% GFP positive cells)
B2 | 2+ (refer to approximately 5%, 10%, 20%, 30%, 40% and 50% GFP positive cells)
B3 | 5+ (refer to approximately 5%, 10%, 20%, 30%, 40% and 50% GFP positive cells)
B4 | + (refer to approximately 5%, 10%, 20%, 30%, 40% and 50% GFP positive cells)

Test system: L363 cells
Test: JNG assay, co-culture with L363 cells
Assay type: cell-based
Details: co-culture with L363
How it was run: as §1

Molecule | NFAT-GFP ASSAY: L363
B1 | +/- (refer to approximately 5%, 10%, 20%, 30%, 40% and 50% GFP positive cells)
B3 | 5+ (refer to approximately 5%, 10%, 20%, 30%, 40% and 50% GFP positive cells)

Test system: Nalm6 cells
Test: JNG assay, co-culture with Nalm6 cells
Assay type: cell-based
Details: co-culture with Nalm6
How it was run: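 SAR-JNG (lentiviral spinfection, drug-selected) + target cells, E:T ≈1:2, ≈4–18 h; FACS for GFP; positivity = %GFP+ over parental JNG; grades +/- to 5+ ≈ 5–50% GFP+.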

Molecule | NFAT-GFP ASSAY: Nalm6
B1 | 2+ (refer to approximately 5%, 10%, 20%, 30%, 40% and 50% GFP positive cells)
B2 | 3+ (refer to approximately 5%, 10%, 20%, 30%, 40% and 50% GFP positive cells)
B4 | + (refer to approximately 5%, 10%, 20%, 30%, 40% and 50% GFP positive cells)

Test system: RS;411
Test: JNG assay, co-culture with RS;411 cells
Assay type: cell-based
Details: co-culture with RS411
How it was run: as §1

Molecule | NFAT-GFP ASSAY: RS411
B1 | 4+ (refer to approximately 5%, 10%, 20%, 30%, 40% and 50% GFP positive cells)
B2 | 2+ (refer to approximately 5%, 10%, 20%, 30%, 40% and 50% GFP positive cells)
B3 | 4+ (refer to approximately 5%, 10%, 20%, 30%, 40% and 50% GFP positive cells)
B4 | +/- (refer to approximately 5%, 10%, 20%, 30%, 40% and 50% GFP positive cells)
